In publication PMC11173125:

Biological target: Nsp9 (SARS-CoV-2, UniProt P0DTD1 4141-4253)
Test: EMSA
Conditions: protein: recombinant; tags: C-terminal […]; (pET21b); chain copies: 2; label: 5' biotin; single strand

B1: dT45 (ssDNA)
DNA: TTTTTTTTTTTTTTTTTTTTTTTTTTTTTTTTTTTTTTTTTTTTT
- apparent K (half saturation): 33.5 ± 2.5 µM
